# Test results from the nanobody polyreactivity screen of Harvey et al. (2022).
# Experiment: yeast display, Sf9 membrane polyspecificity reagent, FACS + sequencing; frameworks hold sequencing errors
# In short: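 A synthetic nanobody library was expressed on Saccharomyces cerevisiae BJ5465 by galactose induction for 36–48 hours. The library was stained for 1 hour at 4 °C with 10% biotinylated, detergent-solubilized Sf9 membrane reagent and enriched with streptavidin microbeads before FACS. Low and high (top ~1%) gates were set on anti-HA fluorescence for expression and streptavidin fluorescence for reagent binding, and each polyreactivity label reflects the gate of origin.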
row,Sequence,polyreactivity (PSR sort gate)
1,QVQLVESGGGLVQAGGSLRLSCAASGFIFPGYAMGWYRQAPGKERELVAAITRSGGSTYYADSVKGRFTISRDNAKNTVYLQMNSLKPEDTAVYYCAAYVSGYRWGYDYWGQGTQVTVSS,high polyreactivity
2,QVQLVESGGGLVQAGGSLRLSCAASGFIFPGYTMGWYRQAPGKERELVAAISRGSSTYYADSVKRRFTISRDNAKNSVYLQMNSLKPEDTAVYYCAADYSYIYGFDYWGQGTQVTVSS,low polyreactivity
3,QVQLVESGGGLVQAGGSLRLSCAASGFIFPHNTMGWYRQAPGKERELVAAISSGGSTNYADSVKGRFTISRDNAKNTVYLQMNSLKPEDTAVYYCNKRVRYHSGFGYWGQGTQVTVSS,low polyreactivity
4,QVQLVESGGGLVQAGGSLRLSCAASGFIFPLYAMGWYRQAPGKERELVAAITWRGDTTSYADSVKGRFTISRDNAKNTVYLQKNSLKPEDTAVDYCAAVRYPSGYDYWGQGTQVTVSS,high polyreactivity
5,QVQLVESGGGLVQAGGSLRLSCAASGFIFPLYAMGWYRQAPGKERELVAAITWRGDTTSYADSVKGRFTISRDNAKNTVYLQMNSLKPEDTAVYYCAAVRYPSGYDYWGQGTQVTVSS,high polyreactivity
6,QVQLVESGGGLVQAGGSLRLSCAASGFIFPPYAMGWYRQAPGKERELVAAIRISGGSTYYADSVKGRFTISRDNAKNTVYLQMNSLKPEDTAVYYCAARYVSSTPAYAYYYWGQGTQVTVSS,high polyreactivity
7,QVQLVESGGGLVQAGGSLRLSCAASGFIFPWYAMGWYRQAPGKERELVAAISESGGGTYYADSVKGRFTISRDYAKNTVYLQMNSLKPEDTAVYYCNKAPRYPYGGYDYWGQGTQVTVSS,low polyreactivity
8,QVQLVESGGGLVQAGGSLRLSCAASGFIFPWYAMGWYRQAPGKERELVAIISWDTGSTYYADSVKGRFTISRDNAKNTVYLQMNSLKPEDTAVYYCAAQQPYAGLYYWGQGTQVTVSS,low polyreactivity
9,QVQLVESGGGLVQAGGSLRLSCAASGFIFPYDAMGWYSQAPGNERELVAAITSSGGRTYYADSVQGRFTISRDNAKNTVYFQMNSLKPEDTAVYYCAARGAPPAYGYWGQGTQVTVSS,high polyreactivity
10,QVQLVESGGGLVQAGGSLRLSCAASGFIFPYNEMGWYRPAPGKERELGAAITSGSNTYYADSVKGRFTISRDNAKNTVYLQLNSLKPEDTAFYYCAARRRIYRSMGYWGQGSQVTVSS,low polyreactivity
11,QVQLVESGGGLVQAGGSLRLSCAASGFIFPYNTMGWYRQAPGTERELVAAIDSGGSTNYADSVKGRFTISRDNAKNTVDLQMNSLKPEDTAVYYCAADDPGSWWVGLLLTGVDDDYWGQGTQVTVSS,low polyreactivity
12,QVQLVESGGGLVQAGGSLRLSCAASGFIFPYYARGWYRQAPGKERELVAGITGADSTYYADSVKGRFTISRDNAKNTVYLQMNSLKPEDTAVYYCARKRYSLSRTYNYGYWGQGTQVTVSS,high polyreactivity
13,QVQLVESGGGLVQAGGSLRLSCAASGFIFQANAMGWYRQAPGKETELDAAIDDGDTTYADSVKGRFTISRDNAKNTVYLQMNSLKPEDTAGYYCATRRNRSYDYWGQGTQVTVSS,low polyreactivity
14,QVQLVESGGGLVQAGGSLRLSCAASGFIFQANPMGWYRPAPGKERELVAAIDDGDSTYADSVKGRFTISRDNAKNTVYLQMNSLKPEDTAVYYCATRRKRSYDYWGHGTQVTVSS,low polyreactivity
15,QVQLVESGGGLVQAGGSLRLSCAASGFIFQDYALGWYRQAPGKERELVAAISRSTGSTYYADSVKGRFTISRDNPKNTVYLQMNSLKPEDTAVYYCAKPRSWGYNWGQGTQVTVSS,high polyreactivity
16,QVQLVESGGGLVQAGGSLRLSCAASGFIFQKYAMGWYRQAPGKERELVAAIRYDGGSTYYADSVKGRFTISRDNAKNTVYLQMNSLKPDDTAVYYCAAYGPRLLIYPPYRYNYWGQGTQVTVSS,high polyreactivity
17,QVQLVESGGGLVQAGGSLRLSCAASGFIFQKYAMGWYRQAPGKERELVAAIRYDGGSTYYADSVKGRFTISRDNAKNTVYLQMNSLKPEDTAVYYCAAYGPRFLIYPPYRYNYWGQGTQVTVSS,high polyreactivity
18,QVQLVESGGGLVQAGGSLRLSCAASGFIFQPNAMGWYRQAPGKERELVAVITWSGGSTYYADSVKGRFTISRDNAKNTVYLQMNSLKPEDTAVYYCAVDGAYDQKPTDLKGYYYWGQGTQVTVSS,low polyreactivity
19,QVQLVESGGGLVQAGGSLRLSCAASGFIFQPYAMGWYRQAPRKERELVAAITSRGGRTYYADSVKGRFTISRDNAKNTVYLQMNSLKPEDTAVYYCNGDIYASEYYYWGQGTQVTVSS,low polyreactivity
20,QVQLVESGGGLVQAGGSLRLSCAASGFIFQRYAMGCYRQAPGKERELVAAISKGGGNTYYADSVKGRFTISRDNAKKTVYLQMNSLKPEDTAVYYCNAVPRPDHDYWGQGTQVTVSS,high polyreactivity
21,QVQLVESGGGLVQAGGSLRLSCAASGFIFQRYAMGWYRQAPGKERELVAAITKSGGSTYYADSVKGRYTISRDNAKNTVYLQMNSLKPEDTAVYYCNAYRYGSYRPHQEDYDYWGQGTQVTVSS,high polyreactivity

row,Sequence,polyreactivity (PSR sort gate)
1,QVQLVESGGGLVQAGGSLRLSCAASGFIFQTNVMGWYRQAPGKERELVAAISSGDSTYYADSVKGRFTISRDNAKNTVYLQMNSLKPEDTAVYYCAADVLGTTTTVGGFNYWGQGTQVTVSS,low polyreactivity
2,QVQLVESGGGLVQAGGSLRLSCAASGFIFQYFAMGWYRQAPGKERELVAGITSGVRPYYADSLKGRFTISRDNAKNTVYLQMNSLKPEDTAVYYCARLDSAAEPRQYDYWGQGTQVTVSS,high polyreactivity
3,QVQLVESGGGLVQAGGSLRLSCAASGFIFQYYAMGWYRQAPGKERELVAAIRISGGSTYYADSVKGRFTSSRDNAKNTVYLQMNSLKPEDTAVYYCAARQIITKFYTSNGVSSYYWGQGTQVTVSS,high polyreactivity
4,QVQLVESGGGLVQAGGSLRLSCAASGFIFRAYTMGWYRQAPGKERELVAGITSGGSTYYADSVKGRFTISRDNAKNTVYLQMNSLKPDDTAVYYCATYYRRWTPIPYEYWGQGTQVTVSS,high polyreactivity
5,QVQLVESGGGLVQAGGSLRLSCAASGFIFRDNAKGWYRQAPGKERELVAAISSGGTTKYADSVKGRFTISRDNAKNTVYLQMNSLKPEDTAVYYCAKGYAARIWRIYSRLYYWGQGTQVTVSS,high polyreactivity
6,QVQLVESGGGLVQAGGSLRLSCAASGFIFRDNAMGWYRQAPGKERELVAAISKSGGRTYYADSVKGRFTISRDNAKNTVYLQMNSLKPEDTAVYYCAKASRYWSLYYWGQGTQVTVSS,high polyreactivity
7,QVQLVESGGGLVQAGGSLRLSCAASGFIFRDNAMGWYRQSPGKERELVAAISERGGRTYYADSVKGRFTISRDNAKNTVYLQMNSLKPEDTAVYYCADEDIAKFYYWGQGTQVTVSS,high polyreactivity
8,QVQLVESGGGLVQAGGSLRLSCAASGFIFRGNAMGWYRQAPGKERELVAAISRRGGTTYYADSVKGRFTISRDNAKNTVYLQMNSLKPEDTAVYYCAKLVVVPFYYWGQGTQVTVSS,high polyreactivity
9,QVQLVESGGGLVQAGGSLRLSCAASGFIFRGNAMGWYRQAPGKERELVAAISWSGGNTYYADSVKGRFTISRDNAKNTVYLQMNSLKPEDTAVYYCAAGATWSRQGSIRYNYWGQGTQVTVSS,high polyreactivity
10,QVQLVESGGGLVQAGGSLRLSCAASGFIFRGNAMGWYRQATGKERELVAGIRSLGGTTSYADSVKVRFTISRDNAKNTVYLQMNSLKPDDSGVYYCAAGYGADFDYWGQGTQVTVSS,low polyreactivity
11,QVQLVESGGGLVQAGGSLRLSCAASGFIFRGYAMGWYRQAPGKERELVAAISRRGGSTYYADSVKGRFTISRDNAKNTVYLHMNSLKPEDTAVYYCNAETTPQGNVRDGYWGQGTQVTVSS,high polyreactivity
12,QVQLVESGGGLVQAGGSLRLSCAASGFIFRHNAMGWYRQAPGKEREFVAAISISGGSTYYADSVKGRFTISRDNAKNTVDLQMNSLKPEDTAVYYCNARSLGNTYLLYDYWGQGTQVTVSS,low polyreactivity
13,QVQLVESGGGLVQAGGSLRLSCAASGFIFRHNAMVWYRQAPGKERELVAAITKRGGDTYYADSVKGRFTISRDNAKNTVYLQMISLKPEDTAVYYCNVDVRYPKYYYWGQGTQVTVSS,low polyreactivity
14,QVQLVESGGGLVQAGGSLRLSCAASGFIFRKYVMGWYRQAPGKERELVAAITRSGTSTYYADSVKGRFTISRDNAKNTVYLQMNSLKPEDNAVYYCNVGSDGWYYWGQGTQVTVSS,low polyreactivity
15,QVQLVESGGGLVQAGGSLRLSCAASGFIFRLYAMGWYRQAPGKERELVAAISGRGGNTYYADSVKGRFTISRDNAKNTVYLQMNSLKPEDTAVYYCAADRPGTGYSDYDYWGQGTQVTVSS,high polyreactivity
16,QVQLVESGGGLVQAGGSLRLSCAASGFIFRLYAMGWYRQAPGKERELVAAISRGGSTTYADSVKGRFTISRDNAKNTVYLQMNSLKPEDTAVYYCATEGDYVAYLYDYWGQGTQVTVSS,low polyreactivity
17,QVQLVESGGGLVQAGGSLRLSCAASGFIFRPNAMGWYRQAPGKERELVAAITRDGDRTYYADSVKGRFTISRDNAKNTVYLQMNSLKPEETAVYYCAADVIQWWTRYYTWEYDYWGQGTQVTVSS,low polyreactivity
18,QVQLVESGGGLVQAGGSLRLSCAASGFIFRPYAMGSYRQAPGKERELVAAISYGDGITYYADSVKGRFTISRDNAKNTVYLQMNSLKPEDTAVYYCAAEYVSHFSGYRYDYWGQGTQVTVSS,low polyreactivity
19,QVQLVESGGGLVQAGGSLRLSCAASGFIFRPYTMGWYRQAPGKERELVAAITYSGGSSTYYADSVKGRFTISRDNAKNTVYLQMNSLKPEDTAVSYCATTPDYGHDYWGQGTQVTVSS,low polyreactivity
20,QVQLVESGGGLVQAGGSLRLSCAASGFIFRPYVMGWYRQAPGTERELVAAISRSGSSTYYADSVKGRFTISRDNAKNTVYLQMNSLKPEDTAVYYCARRTSQEFDYWGQGTQVTVSS,high polyreactivity
